Biological target: lymphocyte-derived soluble LIGHT (TNFSF 14) (human (endogenous in PBMC))
Test: SEC

With “lymphocyte-derived soluble LIGHT (TNFSF 14) (ligand)” the stoichiometry N was 3.

Reference: PMC3474183
